Consider 66 substances from the Human Domainome abundance scans (Beltran et al. 2025).

± gives the uncertainty stated by the source.

This data set can be described thus: abundance fitness (aPCA) (normalised: wild type 0, dead -1); higher = more abundant; growth selection in yeast, the domain comes from the species named. Particulars: Homo sapiens.
For the substance “DnaJ homolog subfamily B member 1 D53Q, P25685”, the abundance fitness is -0.279 ± 0.097.

With “DnaJ homolog subfamily B member 1 D53R, P25685”, the abundance fitness is -0.132 ± 0.14.

With “DnaJ homolog subfamily B member 1 D53T, P25685”, the abundance fitness came out at 0.032 ± 0.086.

As for “DnaJ homolog subfamily B member 1 D53V, P25685”, the abundance fitness is -0.013 ± 0.093.

On to “DnaJ homolog subfamily B member 1 D53W, P25685”, for which the abundance fitness was -0.405 ± 0.12.

Take “DnaJ homolog subfamily B member 1 D53Y, P25685”: the abundance fitness was -0.356 ± 0.077.

Turning to “DnaJ homolog subfamily B member 1 D57A, P25685”, the abundance fitness was -0.269 ± 0.088.

As for “DnaJ homolog subfamily B member 1 D57C, P25685”, the abundance fitness is -0.09 ± 0.098.

Take “DnaJ homolog subfamily B member 1 D57E, P25685”: the abundance fitness was -0.269 ± 0.14.

Take “DnaJ homolog subfamily B member 1 D57F, P25685”: the abundance fitness was -0.668 ± 0.17.

Regarding “DnaJ homolog subfamily B member 1 D57G, P25685”, the abundance fitness is -0.298 ± 0.11.

Consider “DnaJ homolog subfamily B member 1 D57I, P25685”, for which the abundance fitness is -0.637 ± 0.22.

As to “DnaJ homolog subfamily B member 1 D57K, P25685”, the abundance fitness is -0.123 ± 0.13.

On to “DnaJ homolog subfamily B member 1 D57L, P25685”, for which the abundance fitness was -0.53 ± 0.061.

As to “DnaJ homolog subfamily B member 1 D57M, P25685”, the abundance fitness was -0.366 ± 0.084.

Turning to “DnaJ homolog subfamily B member 1 D57N, P25685”, the abundance fitness was -0.071 ± 0.29.

For the substance “DnaJ homolog subfamily B member 1 D57P, P25685”, the abundance fitness was -0.715 ± 0.19.

In the case of “DnaJ homolog subfamily B member 1 D57R, P25685”, the abundance fitness was -0.416 ± 0.072.

As to “DnaJ homolog subfamily B member 1 D57S, P25685”, the abundance fitness is -0.097 ± 0.076.

In the case of “DnaJ homolog subfamily B member 1 D57T, P25685”, the abundance fitness is -0.072 ± 0.089.

Turning to “DnaJ homolog subfamily B member 1 D57V, P25685”, the abundance fitness is -0.317 ± 0.098.

Turning to “DnaJ homolog subfamily B member 1 D57W, P25685”, the abundance fitness is -0.812 ± 0.2.

For the substance “DnaJ homolog subfamily B member 1 D57Y, P25685”, the abundance fitness is -0.45 ± 0.11.

In the case of “DnaJ homolog subfamily B member 1 D65A, P25685”, the abundance fitness is -0.123 ± 0.078.

As to “DnaJ homolog subfamily B member 1 D65E, P25685”, the abundance fitness was -0.152 ± 0.2.

On to “DnaJ homolog subfamily B member 1 D65F, P25685”, for which the abundance fitness was -0.275 ± 0.18.

Consider “DnaJ homolog subfamily B member 1 D65G, P25685”, for which the abundance fitness was -0.197 ± 0.11.

As for “DnaJ homolog subfamily B member 1 D65I, P25685”, the abundance fitness is -0.387 ± 0.1.

For the substance “DnaJ homolog subfamily B member 1 D65L, P25685”, the abundance fitness is -0.116 ± 0.085.

As to “DnaJ homolog subfamily B member 1 D65M, P25685”, the abundance fitness is -0.162 ± 0.13.

For the substance “DnaJ homolog subfamily B member 1 D65N, P25685”, the abundance fitness was -0.222 ± 0.19.

As to “DnaJ homolog subfamily B member 1 D65P, P25685”, the abundance fitness is -0.164 ± 0.11.

Consider “DnaJ homolog subfamily B member 1 D65Q, P25685”, for which the abundance fitness was -0.124 ± 0.11.

On to “DnaJ homolog subfamily B member 1 D65R, P25685”, for which the abundance fitness is -0.163 ± 0.1.

On to “DnaJ homolog subfamily B member 1 D65S, P25685”, for which the abundance fitness was -0.158 ± 0.18.

On to “DnaJ homolog subfamily B member 1 D65T, P25685”, for which the abundance fitness was -0.228 ± 0.11.

As for “DnaJ homolog subfamily B member 1 D65V, P25685”, the abundance fitness is -0.262 ± 0.1.

As to “DnaJ homolog subfamily B member 1 D65W, P25685”, the abundance fitness is -0.358 ± 0.19.

Take “DnaJ homolog subfamily B member 1 D65Y, P25685”: the abundance fitness is -0.261 ± 0.13.

As for “DnaJ homolog subfamily B member 1 E18A, P25685”, the abundance fitness was -0.067 ± 0.074.

On to “DnaJ homolog subfamily B member 1 E18D, P25685”, for which the abundance fitness came to 0.034 ± 0.16.

In the case of “DnaJ homolog subfamily B member 1 E18G, P25685”, the abundance fitness was -0.162 ± 0.066.

On to “DnaJ homolog subfamily B member 1 E18H, P25685”, for which the abundance fitness is -0.066 ± 0.28.

Consider “DnaJ homolog subfamily B member 1 E18I, P25685”, for which the abundance fitness was -0.173 ± 0.14.

Regarding “DnaJ homolog subfamily B member 1 E18K, P25685”, the abundance fitness was -0.205 ± 0.11.

With “DnaJ homolog subfamily B member 1 E18L, P25685”, the abundance fitness was -0.21 ± 0.071.

As to “DnaJ homolog subfamily B member 1 E18M, P25685”, the abundance fitness was -0.188 ± 0.074.

Take “DnaJ homolog subfamily B member 1 E18N, P25685”: the abundance fitness is -0.045 ± 0.18.

On to “DnaJ homolog subfamily B member 1 E18Q, P25685”, for which the abundance fitness was -0.231 ± 0.083.

In the case of “DnaJ homolog subfamily B member 1 E18S, P25685”, the abundance fitness is -0.093 ± 0.074.

With “DnaJ homolog subfamily B member 1 E18T, P25685”, the abundance fitness was -0.081 ± 0.15.

As for “DnaJ homolog subfamily B member 1 E18V, P25685”, the abundance fitness was -0.209 ± 0.061.

Regarding “DnaJ homolog subfamily B member 1 E18W, P25685”, the abundance fitness is -0.268 ± 0.061.

As for “DnaJ homolog subfamily B member 1 E19A, P25685”, the abundance fitness amounted to 0.022 ± 0.08.

As to “DnaJ homolog subfamily B member 1 E19C, P25685”, the abundance fitness was -0.291 ± 0.12.

Turning to “DnaJ homolog subfamily B member 1 E19D, P25685”, the abundance fitness was -0.089 ± 0.092.

On to “DnaJ homolog subfamily B member 1 E19F, P25685”, for which the abundance fitness is -1.06 ± 0.08.

“DnaJ homolog subfamily B member 1 E19G, P25685”: the abundance fitness was -0.539 ± 0.078.

For the substance “DnaJ homolog subfamily B member 1 E19H, P25685”, the abundance fitness was -0.363 ± 0.14.

Regarding “DnaJ homolog subfamily B member 1 E19I, P25685”, the abundance fitness is -0.659 ± 0.12.

As to “DnaJ homolog subfamily B member 1 E19K, P25685”, the abundance fitness is -0.396 ± 0.099.

Regarding “DnaJ homolog subfamily B member 1 E19L, P25685”, the abundance fitness is -0.32 ± 0.069.

Take “DnaJ homolog subfamily B member 1 E19M, P25685”: the abundance fitness is -0.199 ± 0.1.

Turning to “DnaJ homolog subfamily B member 1 E19N, P25685”, the abundance fitness was -0.273 ± 0.11.

In the case of “DnaJ homolog subfamily B member 1 E19P, P25685”, the abundance fitness is -1.29 ± 0.11.

With “DnaJ homolog subfamily B member 1 E19Q, P25685”, the abundance fitness came to 0.118 ± 0.12.
